The results in this text go back to US10227617B2, “Sequestration of carbon dioxide with hydrogen to useful products” (UNIVERSITY OF GEORGIA RESEARCH FOUNDATION, INC., priority 2012, dated 2019).

One series has as its system P. furiosus cultures. In words: Stability of 3-HP added to P. furiosus cultures. Format: cell-based, Pyrococcus furiosus.
A short description of series [1]: 4-hydroxybutyrate-CoA synthetase assay (DTNB; HPLC confirmation). The format is biochemical. Here is the method:
A time point (0 min) was taken before heating.
The soluble, heat-treated lysate was loaded onto the column with binding buffer (50 mM sodium phosphate, 300 mM NaCl, 20 mM imidazole, pH 7.4) and the his-tagged enzyme removed with elution buffer (50 mM sodium phosphate, 300 mM NaCl, 500 mM imidazole, pH 7.4).

A short description of series [2]: CoA synthetase (acyl-CoA ligase) assay, disappearance of CoA (DTNB), substrate acetate. To be noted: saturating substrate concentrations. Format: biochemical.
Description: (§2) Two assays were used to measure ligase activity, one spectrophotometric and one using high-performance liquid chromatography (HPLC). A discontinuous assay was used to measure substrate-dependent disappearance of CoA at 75° C. The reaction mixture (600 μl) contained 100 mM MOPS-KOH (pH 7.9), 5 mM MgCl2, 2.5 mM ATP, 0.15 mM CoA, and purified enzyme. At each time point, 80 μl of reaction mixture was added to 80 μl cold 5,5′-dithiobis-(2-nitrobenzoic acid) (DTNB). A time point (0 min) was taken before heating. The reaction mixture was incubated for 2 min at 75° C., followed by addition of substrate. Additional time points were taken at 30, 60, 90, 120, and 180 sec after addition of substrate. Absorbance was measured at 412 nm to determine free CoA concentration, based on the concentration of 2-nitro-5-thiobenzoate dianion (NTB^2−) (ε412=14,150 M^−1 cm^−1) (Hawkins et al., 2011, ACS Catal. 1, 1043-1050, Riddles et al., 1983, Methods in Enzymology 91, 49-60). Enzymes were kinetically characterized by varying the concentration of the acyl-CoA substrate from 0.05 mM to 12 mM, while the other substrate concentrations were held constant. Measurements for specific activity were taken under saturating substrate concentrations (10 mM). Formation of the CoA ester was also confirmed using HPLC (Waters). […]
A short description of series [3]: CoA synthetase assay (DTNB), substrate propionate. The format is biochemical. To be noted: saturating substrate concentrations.
Description: as §2
Series [4] can be described thus: Ligase activity over a range of short-chain linear organic acids. The format is biochemical. On the procedure: (§1) Two assays were used to measure ligase activity, one spectrophotometric and one using high-performance liquid chromatography (HPLC). A discontinuous assay was used to measure substrate-dependent disappearance of CoA at 75° C. The reaction mixture (600 μl) contained 100 mM MOPS-KOH (pH 7.9), 5 mM MgCl2, 2.5 mM ATP, 0.15 mM CoA, and purified enzyme. At each time point, 80 μl of reaction mixture was added to 80 μl cold 5,5′-dithiobis-(2-nitrobenzoic acid) (DTNB). A time point (0 min) was taken before heating. The reaction mixture was incubated for 2 min at 75° C., followed by addition of substrate. Additional time points were taken at 30, 60, 90, 120, and 180 sec after addition of substrate. Absorbance was measured at 412 nm to determine free CoA concentration, based on the concentration of 2-nitro-5-thiobenzoate dianion (NTB^2−) (ε412=14,150 M^−1 cm^−1) (Hawkins et al., 2011, ACS Catal. 1, 1043-1050, Riddles et al., 1983, Methods in Enzymology 91, 49-60). Enzymes were kinetically characterized by varying the concentration of the […] substrate from 0.05 mM to 12 mM, while the other substrate concentrations were held constant. Measurements for specific activity were taken under saturating substrate concentrations (10 mM). Formation of the CoA ester was also confirmed using HPLC (Waters). […]

Series [5] is described as follows: CoA synthetase assay, substrate hexanoic acid. To be noted: six carbon hexanoic acid. Format: biochemical. Here is the method: as §1
Another series addresses T1, E9 (Metallosphaera sedula, UniProt A4YGN0).
T1 construct: expressed in transfected cells; host or cells: Pyrococcus furiosus strain MW43 (SP2B operon integrated at genome region 2); cell-free extract
T1 sequence (A4YGN0 1-360): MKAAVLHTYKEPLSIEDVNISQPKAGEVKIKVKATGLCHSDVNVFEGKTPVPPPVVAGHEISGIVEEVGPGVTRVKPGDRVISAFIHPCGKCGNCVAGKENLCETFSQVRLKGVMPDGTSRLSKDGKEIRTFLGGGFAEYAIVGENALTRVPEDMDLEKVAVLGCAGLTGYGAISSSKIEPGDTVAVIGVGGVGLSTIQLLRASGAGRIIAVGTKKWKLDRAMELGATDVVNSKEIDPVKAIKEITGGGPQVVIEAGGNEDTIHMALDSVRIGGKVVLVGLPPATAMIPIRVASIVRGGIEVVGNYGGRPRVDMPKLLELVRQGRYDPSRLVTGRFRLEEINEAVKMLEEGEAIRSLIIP
Briefly: NADPH-dependent assay for E9 in cell-free extracts. Format: biochemical. Here is the method:
NADPH-dependent assay for E9 of the SP2B subpathway (FIG. 36). Assays were carried out in sealed anaerobic cuvettes at 75° C. containing 100 mM MOPS pH 7.5 (measured at room temperature), 5 mM MgCl2, 5 mM DTT, 1 mM NADPH and the cell-free extract of P. furiosus (0.25 mg/ml). After addition of 1 mM succinic semialdehyde, NADPH oxidation was determined by the absorbance at 340 nm and rates were calculated based on the difference before and after the addition of the succinic semialdehyde.

“Also recorded” adds a separate entry of the source.

On to `O=C(O)CCO` [3-HP, 3-hydroxypropionic acid], for which, in the series with P. furiosus cultures, the “stability when added to P. furiosus cultures” value is reported as “stable”.

B1: Msed_1353-G424: single substitution mutant (Trp424 to Gly) of acetate/propionate synthetase Msed_1353, SEQ ID NO:18 (protein, listed as Metallosphaera sedula)
chain: MSQPENESGLPFQEKVVPELLKHRLVTPEEYLRIHKKTVENYQEYWESVAKELDWFKPWEKALDDSHPPFYKWFVGGELNASYLAVDRHANSWRRNKVAIIWEGEPWENGPKEVRKLTYLDLYREVNRAAYLLKEVYGLKKGDTIGIYLPMIPELPIFMLAAARLGVAFTVVFSGFSAQAVADRMNDADTKLLITADGGWRRGKVIPLKEIVDKALETATTVKNVLVVRRTGTEISMKPGRDAYLHDVMSKVPIKAYVEPERVKSEDPLYILYTSGTTGKPKGIIHDTGGYMTLLHNTMKLVFDIRDTDVFWCTADIGWVTGHSYIVFGPLQEGATEVMYEGALDFPEPDRWVSIIERHQVSILYTSPTAIRTFMKQGEQWIKKHDVSSVRLMHSVGEPINPEAWRWFHKLVGRGQVPFGSTWGMTETGGIMISHMPGGYLVPMKPGTNGPPLLGIETNVFDEEGKPMPEEQKGYLVITKPWPGMPLTINKDPERYVKVYWNKFPNVFYAGDYAIKDRDGYFWILGRADEVMKIAGHRIGTYELESALVQHPAIAEAAVVGVPDPVRGEVAEAFVILRSGVEPSAKLREEIVKFVRENFGPIAVFREIHFVSKLPKTRSGKIMRRVIKAVATNSPVGDVTTLEDEASVEEVKKAFQELKEQVGK
Consider B1, for which the specific activity in series [1] (4HB, saturating substrate concentrations) worked out at 1.8 µmol/min/mg; in series [2] it was 3.6 µmol/min/mg; in series [3] it was 3.5 µmol/min/mg. The “substrates on which activity was shown” value in series [4] is “activity on C4-C8 substrates; also recorded: activity on 3HP, 4HB, valerate, hexanoate, and even octanoate”. Besides, the “decrease of activity of mutant versus native enzyme” value in series [4] (on acetate and propionate) stood at 60%.

B2: Msed_0394: recombinant M. sedula enzyme with 4-hydroxybutyrate:CoA ligase activity, annotated AMP-dependent synthetase and ligase, SEQ ID NO:13 (protein, listed as Metallosphaera sedula)
chain: MGGFKIPNYEGVDPTGSWYSVLTPLLFLERAGKYFKDKTAVVYRDSRYTYSTFYDNVMVQASALMRRGFSREDKLSFISRNRPEFLESFFGVPYAGGVLVPINFRLSPKEMAYIINHSDSKFVVVDEPYLNSLLEVKDQIKAEIILLEDPDNPSASETARKEVRMTYRELVKGGSRDPLPIPAKEEYSMITLYYTSGTTGLPKGVMHHHRGAFLNAMAEVLEHQMDLNSVYLWTLPMFHAASWGFSWATVAVGATNVCLDKVDYPLIYRLVEKERVTHMCAAPTVYVNLADYMKRNNLKFSNRVHMLVAGAAPAPATLKAMQEIGGYMCHVYGLTETYGPHSICEWRREWDSLPLEEQAKLKARQGIPYVSFEMDVFDANGKPVPWDGKTIGEVVMRGHNVALGYYKNPEKTAESFRDGWFHSGDAAVVHPDGYIEIVDRFKDLINTGGEKVSSILVEKTLMEIPGVKAVAVYGTPDEKWGEVVTARIELQEGVKLTEEEVIKFCKERLAHFECPKIVEFGPIPMTATGKMQKYVLRNEAKAKANKEKS
Turning to B2, the “production of 4HB-CoA from 4HB and CoA” value in series [1] (reversed-phase HPLC) is given as “confirmed”. For the same molecule, the “rate of ligation of CoA to 4HB” value in series [1] (substrate 4HB) was determined as 0.22 µmol·min/mg. Also, the “activity with hexanoic acid” value in series [5] was “No activity”.

B3: E9: M. sedula succinate semialdehyde reductase, SEQ ID NO:12, in extracts of strain MW43 (protein, listed as Metallosphaera sedula)
chain: MKAAVLHTYKEPLSIEDVNISQPKAGEVKIKVKATGLCHSDVNVFEGKTPVPPPVVAGHEISGIVEEVGPGVTRVKPGDRVISAFIHPCGKCGNCVAGKENLCETFSQVRLKGVMPDGTSRLSKDGKEIRTFLGGGFAEYAIVGENALTRVPEDMDLEKVAVLGCAGLTGYGAISSSKIEPGDTVAVIGVGGVGLSTIQLLRASGAGRIIAVGTKKWKLDRAMELGATDVVNSKEIDPVKAIKEITGGGPQVVIEAGGNEDTIHMALDSVRIGGKVVLVGLPPATAMIPIRVASIVRGGIEVVGNYGGRPRVDMPKLLELVRQGRYDPSRLVTGRFRLEEINEAVKMLEEGEAIRSLIIP
For the molecule B3, the “half-life of E9” value with E9 (at 90° C, cell-free extracts) is given as roughly 30 min. For the same molecule, the “assay temperature of maximum E9 activity” value with E9 (cell extracts) was “above 80 °C”.
